Molecular target: Carcinoembryonic antigen (CEA) (UniProt P06731 35-685)
Test: electrochemical nanoMIPs-aptamer sandwich assay (SWASV of Pb2+); CEA captured on nanoMIPs electrode; aptamer on MOF-Pb probe; linear 1-1000 ng/mL, LOD 1.4 ng/mL (sensor values, not Kd); CEA in 0.01 M PBS pH 7.4, 1 h on nanoMIPs electrode, PBS/0.05% TWEEN20 wash; MOF-Pb-Apt probe (stored in 10 mM Tris-HCl pH 7.4) 30 min; temperature not stated
Conditions: protein: commercial

Chain of Carcinoembryonic antigen (CEA) (P06731 35-685): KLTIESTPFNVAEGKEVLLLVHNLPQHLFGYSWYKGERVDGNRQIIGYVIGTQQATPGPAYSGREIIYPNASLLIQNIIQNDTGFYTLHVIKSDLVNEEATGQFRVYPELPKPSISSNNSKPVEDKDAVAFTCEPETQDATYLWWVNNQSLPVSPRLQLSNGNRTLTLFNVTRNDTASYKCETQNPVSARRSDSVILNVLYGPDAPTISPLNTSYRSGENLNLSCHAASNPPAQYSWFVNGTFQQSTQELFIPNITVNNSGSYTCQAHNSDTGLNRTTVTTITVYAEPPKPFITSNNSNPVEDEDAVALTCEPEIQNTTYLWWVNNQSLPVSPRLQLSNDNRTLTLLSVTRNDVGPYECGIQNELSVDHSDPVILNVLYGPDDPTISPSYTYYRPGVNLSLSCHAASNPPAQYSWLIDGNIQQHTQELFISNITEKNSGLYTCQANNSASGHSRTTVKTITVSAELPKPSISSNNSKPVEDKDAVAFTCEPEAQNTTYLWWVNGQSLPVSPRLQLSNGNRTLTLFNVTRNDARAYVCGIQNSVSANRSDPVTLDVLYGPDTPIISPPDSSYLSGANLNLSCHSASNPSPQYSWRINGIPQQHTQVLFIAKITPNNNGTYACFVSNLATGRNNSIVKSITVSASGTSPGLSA

B1: CEA-specific aptamer (ssDNA)
DNA: ATACCAGCTTATTCAATT
modifications: 5'-phosphate-C6
B1: binds.

From paper PMC12603206, “The sensitive and selective electrochemical detection of carcinoembryonic antigen using a nanoMIPs-aptamer sandwich assay”
